Tests used:
Conditions in all cases: glycan lost; control: wild type APP-SNAP
[1] = confocal, fraction of cells with plasma-membrane APP-SNAP
[2] = confocal, plasma-membrane share of total APP-SNAP intensity per cell
[3] = confocal colocalisation with Golgi marker GRASP65
[4] = live-cell confocal colocalisation with SiR-lysosome
[5] = Aβ42 ELISA of cell lysate (intracellular)
[6] = Airyscan colocalisation with early endosome marker EEA1
[7] = confocal imaging, size of APP-SNAP-positive vesicles
[8] = Aβ42 ELISA of culture medium (secreted)

| Substance | localisation_or_trafficking, other: percent of cells with APP-SNAP in plasma membrane [1] | localisation_or_trafficking [2] | localisation_or_trafficking [3] | localisation_or_trafficking [4] | other: proteolytic processing [5] | localisation_or_trafficking [6] | localisation_or_trafficking [7] | other: proteolytic processing [8] |
| --- | --- | --- | --- | --- | --- | --- | --- | --- |
| amyloid precursor protein (hAPP695-SNAP): N467Q | decreases, 11.8 vs 35.3 | decreases | no change | decreases | increases | no change | decreases | increases |
| amyloid precursor protein (hAPP695-SNAP): N496Q | decreases, 9.8 vs 35.3 | decreases | no change | decreases | increases | no change | decreases | increases |
